Starred links: 1 amine or outer side, 2 acyl side, 3 side chain; linkers in the order of their positions; H or OH if unused. Non-standard residues stand in square brackets, D forms with d. Groups on a side chain read outwards from the residue. No end group written: not given here. *: point of attachment. γGlu = O=C(O)[C@H](CCC(=O)[*:2])N[*:1]; Palmitoyl = CCCCCCCCCCCCCCCC(=O)*; Aib = CC(C)(N)C(=O)O
B1: SEQ ID NO: 26 (peptide)
peptide: IVLSLD[dV]PTKLK([γGlu-Palmitoyl])KKLLKQERKRKERE[Aib]AEKNARILERV-NH2
modifications: N-terminus assumed
SMILES: CCCCCCCCCCCCCCCC(=O)N[C@@H](CCC(=O)NCCCC[C@H](NC(=O)[C@H](CC(C)C)NC(=O)[C@H](CCCCN)NC(=O)[C@@H](NC(=O)[C@@H]1CCCN1C(=O)[C@H](NC(=O)[C@H](CC(=O)O)NC(=O)[C@H](CC(C)C)NC(=O)[C@H](CO)NC(=O)[C@H](CC(C)C)NC(=O)[C@@H](NC(=O)[C@@H](N)[C@@H](C)CC)C(C)C)C(C)C)[C@@H](C)O)C(=O)N[C@@H](CCCCN)C(=O)N[C@@H](CCCCN)C(=O)N[C@@H](CC(C)C)C(=O)N[C@@H](CC(C)C)C(=O)N[C@@H](CCCCN)C(=O)N[C@@H](CCC(N)=O)C(=O)N[C@@H](CCC(=O)O)C(=O)N[C@@H](CCCNC(=N)N)C(=O)N[C@@H](CCCCN)C(=O)N[C@@H](CCCNC(=N)N)C(=O)N[C@@H](CCCCN)C(=O)N[C@@H](CCC(=O)O)C(=O)N[C@@H](CCCNC(=N)N)C(=O)N[C@@H](CCC(=O)O)C(=O)NC(C)(C)C(=O)N[C@@H](C)C(=O)N[C@@H](CCC(=O)O)C(=O)N[C@@H](CCCCN)C(=O)N[C@@H](CC(N)=O)C(=O)N[C@@H](C)C(=O)N[C@@H](CCCNC(=N)N)C(=O)N[C@H](C(=O)N[C@@H](CC(C)C)C(=O)N[C@@H](CCC(=O)O)C(=O)N[C@@H](CCCNC(=N)N)C(=O)N[C@H](C(N)=O)C(C)C)[C@@H](C)CC)C(=O)O
B2: SEQ ID NO: 27 (peptide)
peptide: IVLSLD[dV]PTKLK([γGlu-Palmitoyl])KKLLKQERKRKEREQAEKNARILERV-NH2
modifications: N-terminus assumed
SMILES: CCCCCCCCCCCCCCCC(=O)N[C@@H](CCC(=O)NCCCC[C@H](NC(=O)[C@H](CC(C)C)NC(=O)[C@H](CCCCN)NC(=O)[C@@H](NC(=O)[C@@H]1CCCN1C(=O)[C@H](NC(=O)[C@H](CC(=O)O)NC(=O)[C@H](CC(C)C)NC(=O)[C@H](CO)NC(=O)[C@H](CC(C)C)NC(=O)[C@@H](NC(=O)[C@@H](N)[C@@H](C)CC)C(C)C)C(C)C)[C@@H](C)O)C(=O)N[C@@H](CCCCN)C(=O)N[C@@H](CCCCN)C(=O)N[C@@H](CC(C)C)C(=O)N[C@@H](CC(C)C)C(=O)N[C@@H](CCCCN)C(=O)N[C@@H](CCC(N)=O)C(=O)N[C@@H](CCC(=O)O)C(=O)N[C@@H](CCCNC(=N)N)C(=O)N[C@@H](CCCCN)C(=O)N[C@@H](CCCNC(=N)N)C(=O)N[C@@H](CCCCN)C(=O)N[C@@H](CCC(=O)O)C(=O)N[C@@H](CCCNC(=N)N)C(=O)N[C@@H](CCC(=O)O)C(=O)N[C@@H](CCC(N)=O)C(=O)N[C@@H](C)C(=O)N[C@@H](CCC(=O)O)C(=O)N[C@@H](CCCCN)C(=O)N[C@@H](CC(N)=O)C(=O)N[C@@H](C)C(=O)N[C@@H](CCCNC(=N)N)C(=O)N[C@H](C(=O)N[C@@H](CC(C)C)C(=O)N[C@@H](CCC(=O)O)C(=O)N[C@@H](CCCNC(=N)N)C(=O)N[C@H](C(N)=O)C(C)C)[C@@H](C)CC)C(=O)O
B3: SEQ ID NO: 28 (peptide)
peptide: IVLSLD[dV]PTKLK([γGlu-Palmitoyl])KKLLKQERKRKEREKAEKAARILERV-NH2
modifications: N-terminus assumed
SMILES: CCCCCCCCCCCCCCCC(=O)N[C@@H](CCC(=O)NCCCC[C@H](NC(=O)[C@H](CC(C)C)NC(=O)[C@H](CCCCN)NC(=O)[C@@H](NC(=O)[C@@H]1CCCN1C(=O)[C@H](NC(=O)[C@H](CC(=O)O)NC(=O)[C@H](CC(C)C)NC(=O)[C@H](CO)NC(=O)[C@H](CC(C)C)NC(=O)[C@@H](NC(=O)[C@@H](N)[C@@H](C)CC)C(C)C)C(C)C)[C@@H](C)O)C(=O)N[C@@H](CCCCN)C(=O)N[C@@H](CCCCN)C(=O)N[C@@H](CC(C)C)C(=O)N[C@@H](CC(C)C)C(=O)N[C@@H](CCCCN)C(=O)N[C@@H](CCC(N)=O)C(=O)N[C@@H](CCC(=O)O)C(=O)N[C@@H](CCCNC(=N)N)C(=O)N[C@@H](CCCCN)C(=O)N[C@@H](CCCNC(=N)N)C(=O)N[C@@H](CCCCN)C(=O)N[C@@H](CCC(=O)O)C(=O)N[C@@H](CCCNC(=N)N)C(=O)N[C@@H](CCC(=O)O)C(=O)N[C@@H](CCCCN)C(=O)N[C@@H](C)C(=O)N[C@@H](CCC(=O)O)C(=O)N[C@@H](CCCCN)C(=O)N[C@@H](C)C(=O)N[C@@H](C)C(=O)N[C@@H](CCCNC(=N)N)C(=O)N[C@H](C(=O)N[C@@H](CC(C)C)C(=O)N[C@@H](CCC(=O)O)C(=O)N[C@@H](CCCNC(=N)N)C(=O)N[C@H](C(N)=O)C(C)C)[C@@H](C)CC)C(=O)O
B4: SEQ ID NO: 29 (peptide)
peptide: IVLSLD[dV]PTKLK([γGlu-Palmitoyl])KKLLKQERKRKERE[Aib]AEKAARILERV-NH2
modifications: N-terminus assumed
SMILES: CCCCCCCCCCCCCCCC(=O)N[C@@H](CCC(=O)NCCCC[C@H](NC(=O)[C@H](CC(C)C)NC(=O)[C@H](CCCCN)NC(=O)[C@@H](NC(=O)[C@@H]1CCCN1C(=O)[C@H](NC(=O)[C@H](CC(=O)O)NC(=O)[C@H](CC(C)C)NC(=O)[C@H](CO)NC(=O)[C@H](CC(C)C)NC(=O)[C@@H](NC(=O)[C@@H](N)[C@@H](C)CC)C(C)C)C(C)C)[C@@H](C)O)C(=O)N[C@@H](CCCCN)C(=O)N[C@@H](CCCCN)C(=O)N[C@@H](CC(C)C)C(=O)N[C@@H](CC(C)C)C(=O)N[C@@H](CCCCN)C(=O)N[C@@H](CCC(N)=O)C(=O)N[C@@H](CCC(=O)O)C(=O)N[C@@H](CCCNC(=N)N)C(=O)N[C@@H](CCCCN)C(=O)N[C@@H](CCCNC(=N)N)C(=O)N[C@@H](CCCCN)C(=O)N[C@@H](CCC(=O)O)C(=O)N[C@@H](CCCNC(=N)N)C(=O)N[C@@H](CCC(=O)O)C(=O)NC(C)(C)C(=O)N[C@@H](C)C(=O)N[C@@H](CCC(=O)O)C(=O)N[C@@H](CCCCN)C(=O)N[C@@H](C)C(=O)N[C@@H](C)C(=O)N[C@@H](CCCNC(=N)N)C(=O)N[C@H](C(=O)N[C@@H](CC(C)C)C(=O)N[C@@H](CCC(=O)O)C(=O)N[C@@H](CCCNC(=N)N)C(=O)N[C@H](C(N)=O)C(C)C)[C@@H](C)CC)C(=O)O
B5: SEQ ID NO: 30 (peptide)
peptide: IVLSLD[dV]PTKLK([γGlu-Palmitoyl])KKLLKQERKRKEREQAEKAARILERV-NH2
modifications: N-terminus assumed
SMILES: CCCCCCCCCCCCCCCC(=O)N[C@@H](CCC(=O)NCCCC[C@H](NC(=O)[C@H](CC(C)C)NC(=O)[C@H](CCCCN)NC(=O)[C@@H](NC(=O)[C@@H]1CCCN1C(=O)[C@H](NC(=O)[C@H](CC(=O)O)NC(=O)[C@H](CC(C)C)NC(=O)[C@H](CO)NC(=O)[C@H](CC(C)C)NC(=O)[C@@H](NC(=O)[C@@H](N)[C@@H](C)CC)C(C)C)C(C)C)[C@@H](C)O)C(=O)N[C@@H](CCCCN)C(=O)N[C@@H](CCCCN)C(=O)N[C@@H](CC(C)C)C(=O)N[C@@H](CC(C)C)C(=O)N[C@@H](CCCCN)C(=O)N[C@@H](CCC(N)=O)C(=O)N[C@@H](CCC(=O)O)C(=O)N[C@@H](CCCNC(=N)N)C(=O)N[C@@H](CCCCN)C(=O)N[C@@H](CCCNC(=N)N)C(=O)N[C@@H](CCCCN)C(=O)N[C@@H](CCC(=O)O)C(=O)N[C@@H](CCCNC(=N)N)C(=O)N[C@@H](CCC(=O)O)C(=O)N[C@@H](CCC(N)=O)C(=O)N[C@@H](C)C(=O)N[C@@H](CCC(=O)O)C(=O)N[C@@H](CCCCN)C(=O)N[C@@H](C)C(=O)N[C@@H](C)C(=O)N[C@@H](CCCNC(=N)N)C(=O)N[C@H](C(=O)N[C@@H](CC(C)C)C(=O)N[C@@H](CCC(=O)O)C(=O)N[C@@H](CCCNC(=N)N)C(=O)N[C@H](C(N)=O)C(C)C)[C@@H](C)CC)C(=O)O
B6: SEQ ID NO: 31 (peptide)
peptide: IVLSLD[dV]PTKLK([γGlu-Palmitoyl])QKLLKQERQRKEREQAEKN[Aib]RILERV-NH2
modifications: N-terminus assumed
SMILES: CCCCCCCCCCCCCCCC(=O)N[C@@H](CCC(=O)NCCCC[C@H](NC(=O)[C@H](CC(C)C)NC(=O)[C@H](CCCCN)NC(=O)[C@@H](NC(=O)[C@@H]1CCCN1C(=O)[C@H](NC(=O)[C@H](CC(=O)O)NC(=O)[C@H](CC(C)C)NC(=O)[C@H](CO)NC(=O)[C@H](CC(C)C)NC(=O)[C@@H](NC(=O)[C@@H](N)[C@@H](C)CC)C(C)C)C(C)C)[C@@H](C)O)C(=O)N[C@@H](CCC(N)=O)C(=O)N[C@@H](CCCCN)C(=O)N[C@@H](CC(C)C)C(=O)N[C@@H](CC(C)C)C(=O)N[C@@H](CCCCN)C(=O)N[C@@H](CCC(N)=O)C(=O)N[C@@H](CCC(=O)O)C(=O)N[C@@H](CCCNC(=N)N)C(=O)N[C@@H](CCC(N)=O)C(=O)N[C@@H](CCCNC(=N)N)C(=O)N[C@@H](CCCCN)C(=O)N[C@@H](CCC(=O)O)C(=O)N[C@@H](CCCNC(=N)N)C(=O)N[C@@H](CCC(=O)O)C(=O)N[C@@H](CCC(N)=O)C(=O)N[C@@H](C)C(=O)N[C@@H](CCC(=O)O)C(=O)N[C@@H](CCCCN)C(=O)N[C@@H](CC(N)=O)C(=O)NC(C)(C)C(=O)N[C@@H](CCCNC(=N)N)C(=O)N[C@H](C(=O)N[C@@H](CC(C)C)C(=O)N[C@@H](CCC(=O)O)C(=O)N[C@@H](CCCNC(=N)N)C(=O)N[C@H](C(N)=O)C(C)C)[C@@H](C)CC)C(=O)O

Biological target: human corticotropin-releasing factor 2α (CRF2 α receptor) (human), Q13324
Sequence (Q13324 20-411): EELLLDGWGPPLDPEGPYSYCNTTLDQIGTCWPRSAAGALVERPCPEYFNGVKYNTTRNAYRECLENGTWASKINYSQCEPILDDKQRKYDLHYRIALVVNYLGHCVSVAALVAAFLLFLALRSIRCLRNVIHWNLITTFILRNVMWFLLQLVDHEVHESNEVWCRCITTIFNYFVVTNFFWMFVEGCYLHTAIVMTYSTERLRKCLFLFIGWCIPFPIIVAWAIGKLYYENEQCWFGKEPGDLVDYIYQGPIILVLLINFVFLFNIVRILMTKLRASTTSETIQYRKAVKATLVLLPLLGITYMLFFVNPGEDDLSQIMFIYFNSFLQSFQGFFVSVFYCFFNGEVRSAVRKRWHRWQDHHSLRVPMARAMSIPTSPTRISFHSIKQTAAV
Assay: cell-based or functional assay

Binder | EC50 [nM], 0% HSA
B1 | 0.01 nM
B2 | 0.01 nM
B3 | 0.14 nM
B4 | 0.12 nM
B5 | 0.16 nM
B6 | 0.01 nM
IVLSLD[dV]PTKLK([γGlu-Palmitoyl])QKLLKQERQRKEREQAEKNVRILERV-NH2 [SEQ ID NO: 32] | 0.01 nM
